This experiment has as its target human β2 adrenergic receptor, wild type (human) (UniProt P07550). The experiment is described as follows: cell-based or functional assay.

For the substance MbNb80^cHopQ (designed binder), the apparent potency shift for epinephrine: IC50 for β2AR-wt alone divided by IC50^high in the presence of MbNb80^cHopQ ([3H]-DHA competition) (fold (IC50 ratio)) was 2000 and the apparent potency shift for isoprotenerol: IC50 for β2AR-wt divided by IC50^high in the presence of MbNb80^cHopQ ([3H]-DHA competition) (fold (IC50 ratio)) turned out to be 2000.

Values taken from patent US20210206880A1.
